Measurements published in the Human Domainome abundance scans (Beltran et al. 2025).

B1: POU domain, class 6, transcription factor 2, residues 609 to 663; numbered along this chain, P78424 (parent)
chain: KRRTSFTPQALEILNAHFEKNTHPSGQEMTEIAEKLNYDREVVRVWFCNKRQALK

Variants of: B1
Assay: abundance fitness (aPCA) (normalised: wild type 0, dead -1); higher = more abundant; growth selection in yeast, the domain comes from the species named
Conditions: Homo sapiens

Abundance fitness: each site, then its substitutions
E19: D -0.037 | I 0.032 | A 0.046 | F -0.288 | C -0.085 | L -0.057 | H -0.092 | G -0.148 | N -0.07 | R -0.05 | S 0.073 | P -1.05 | M -0.013 | W -0.127 | Q -0.391
D39: I -0.597 | R -0.131 | N -0.138 | S -0.052 | E -0.208 | W -0.54 | F -0.635 | C -0.093 | V -0.418 | K -0.257 | G -0.146 | M -0.483 | Y -0.425 | T -0.002 | H -0.113 | P 0.037 | Q -0.152
Q27: L 0.064 | E 0.05 | I 0.091 | W -0.142 | M -0.39 | G -0.063 | A -0.063 | D 0.25 | P -0.005 | V -0.091 | R 0.012 | H 0.243 | N -0.106 | Y -0.315 | T 0.022 | K 0.131 | F -0.737 | S -0.071
L36: G -0.823 | V -0.003 | M -0.175 | C -0.073 | S -0.6 | R -0.967 | A -0.094 | W -0.642
E34: D -0.428 | S -0.047 | V -0.194 | L -0.024 | T -0.012 | N -0.531 | Q -0.194 | C 0.127 | G -0.347 | R -0.237 | M -0.285
S25: C -0.232 | I -0.355 | R -0.125 | W -0.92 | A -0.185 | N -0.073 | E -0.383 | G -0.051 | L -0.213 | V -0.207 | Y -0.872 | M -0.313 | D -0.17 | F -0.515 | Q -0.313 | T 0.003 | H 0.073
N21: S -0.17 | P -0.987 | M -0.421 | L -0.551 | Y -0.36 | W -0.67 | F -0.659 | K -0.303 | Q -0.044 | V -0.335 | A -0.198 | C -0.008 | E -0.016 | T -0.173 | D -0.153 | R -0.274 | H -0.182 | I -0.351
A33: W -1.01 | H -0.881 | M -0.477 | Q -0.412 | S -0.118 | C -0.199 | D -0.669 | R -0.809 | G -0.248 | V -0.259
E31: I -0.534 | G -0.041 | L -0.288 | M 0.061 | T -0.112 | K -0.31 | A -0.114 | P -0.516 | N -0.258 | C -0.424 | R -0.028 | D -0.077 | V -0.174 | Y -0.499 | W -0.131
I32: D -1.16 | G -0.705 | L -0.154 | A -0.679 | W -0.742 | M -0.246 | S -1.07 | F -0.649 | R -0.958 | V -0.27 | N -0.838 | Y 0.031
K20: E -0.007 | T -0.057 | G -0.129 | A -0.064 | I -0.245 | S -0.088 | P -0.936 | R -0.017 | N -0.227 | W -0.303 | D -0.291 | C -0.289 | L -0.144 | F -0.421 | Y -0.224 | V -0.131 | H -0.239 | M -0.02 | Q -0.17
Y38: P -1.08 | N -0.405 | D -0.152 | C 0.023 | F -0.145 | H -0.176 | Q 0.024 | T 0.072 | S 0.034 | R -0.024 | K -0.133 | W -0.071 | G -0.2 | L 0.006 | A 0.02 | M 0.022 | I 0.027
T22: M -0.022 | Y -0.201 | L -0.017 | G 0.002 | Q 0.084 | E -0.098 | D -0.037 | R 0.005 | S 0.003 | W -0.176 | F -0.198 | H 0.134 | I -0.103 | N 0.049 | P 0.016 | A 0.006 | K -0.089 | V 0.105
K35: C -0.186 | H -0.221 | S -0.047 | I -0.167 | D -0.139 | G -0.087 | L -0.01 | N -0.255 | P -0.883 | M -0.062 | V -0.112 | T 0.071 | E -0.154 | Q -0.095 | F -0.194 | Y -0.088 | R -0.053
N37: I -0.326 | T -0.263 | D -0.042 | A -0.035 | Q -0.06 | S -0.046 | G 0.081 | K -0.036 | C -0.252 | E -0.075 | L -0.241 | F -0.353 | V -0.456 | W -0.444 | R -0.063 | P -0.229 | Y 0.127
R40: P -0.003 | Q -0.12 | C -0.064 | S -0.034 | I -0.029 | D 0.186 | G 0.069 | L 0.061 | A 0.024 | K 0.001 | F 0.041 | E 0.017
H23: R 0.011 | A -0.062 | K -0.034 | F -0.096 | G -0.217 | Q -0.029 | N -0.027 | W -0.124 | E 0.072 | Y -0.257 | M -0.275 | S 0.036 | I -0.169 | V -0.086 | P -1.1 | C 0.018
P24: C -0.462 | A -0.497 | W -0.317 | L -0.394 | F -0.916 | Q -0.741 | D -0.792 | M -0.327 | V -0.386 | N -0.96 | H -0.905 | Y -0.805 | R -0.909 | I -0.21 | E -0.978 | T -0.641 | K -1.1
F18: R -0.856 | V -0.713 | Q -0.937 | I -0.562 | P -1.07 | Y 0.107 | W -0.086 | M -0.76 | T -0.961 | K -0.927 | S -0.593 | N -1.06
E28: K -0.072 | G -0.592 | V -0.094 | T -0.088 | S -0.321 | W -0.692 | R -0.175 | C -0.324 | F -0.17 | D -0.047 | A -0.157 | M -0.595 | I -0.02 | P -0.998 | Q -0.171 | N -0.313 | Y -0.113
T30: L -0.216 | M 0.102 | A -0.046 | R -0.119 | K -0.176 | H -0.061 | E -0.259 | S -0.232 | I -0.088 | Y -0.25 | N -0.177 | W -0.393 | G -0.128 | P -0.692 | Q -0.119
G26: C -0.027 | Q -0.415 | V 0.073 | E 0.119 | M -0.078 | P -0.004 | L -0.054 | S -0.08 | T 0.03 | W 0.119 | R -0.032 | F -0.173 | I -0.02 | N -0.041 | A 0.035 | K -0.114
